The results in this text go back to paper PMC13399020 (The FASEB Journal, 2026).

To fix the notation:
B1: tyrosine hydroxylase (TH) (enzyme)
chain: not shown
modifications: biotin (EZ-Link NHS-PEG4-Biotin) in the BLI experiment only
notes: tyrosine hydroxylase (TH); The methods tell neither plasmid nor purification of TH; also called unliganded TH
B2: phenylalanine hydroxylase, wild type (PAH-WT), full-length (enzyme, human, UniProt P00439 1-452, looked up)
chain: MSTAVLENPGLGRKLSDFGQETSYIEDNCNQNGAISLIFSLKEEVGALAKVLRLFEENDVNLTHIESRPSRLKKDEYEFFTHLDKRSLPALTNIIKILRHDIGATVHELSRDKKKDTVPWFPRTIQELDRFANQILSYGAELDADHPGFKDPVYRARRKQFADIAYNYRHGQPIPRVEYMEEEKKTWGTVFKTLKSLYKTHACYEYNHIFPLLEKYCGFHEDNIPQLEDVSQFLQTCTGFRLRPVAGLLSSRDFLGGLAFRVFHCTQYIRHGSKPMYTPEPDICHELLGHVPLFSDRSFAQFSQEIGLASLGAPDEYIEKLATIYWFTVEFGLCKQGDSIKAYGAGLLSSFGELQYCLSEKPKLLPLELEKTAIQNYTVTEFQPLYYVAESFNDAKEKVRNFAATIPRPFSVRYDPYTQRIEVLDNTQQLKILADSINSEIGILCSALQKIK
modifications: biotin (EZ-Link NHS-PEG4-Biotin) in the BLI experiments only
notes: phenylalanine hydroxylase (PAH), human, wild type; RD residues 1-110, CD 111-410, OD 411-452; Homotetramer; a minor octamer is also seen; also called full-length PAH
B3: PAH-p.R261Q (enzyme, human)
chain: B2 chain with R261Q
notes: phenylalanine hydroxylase (PAH), human, disease-associated variant p.R261Q; Derived from pMAL-c5x/PAH, which encodes human PAH-WT; called tetrameric in the legends; also called PKU-associated variant PAH-p.R261Q; source: E. coli K12 TB1, purified
B4: MBP-PAH(33-112) (domain or fragment, human, UniProt P00439 33-112, looked up)
chain: GAISLIFSLKEEVGALAKVLRLFEENDVNLTHIESRPSRLKKDEYEFFTHLDKRSLPALTNIIKILRHDIGATVHELSRD
notes: Derived from pMAL-c5x/PAH (GenScript); Dimer in 1 mM L-Phe by SEC-MALS; theoretical monomer 52.9 kDa with MBP; also called MBP-PAH(RD); PAH(RD); source: E. coli K12 TB1, purified
B5: C-terminal peptide DNAJC12(176-198) (peptide, UniProt Q9UKB3 176-198, looked up)
peptide: HLRFRWSKDAPSELLRKFRNYEI
notes: only its last seven residues 192-KFRNYEI-198 are printed; also called C-terminal DNAJC12 peptide; CTD peptide; source: synthetic peptide, bought: GenScript

Where a chain is given by its changes, count along the chain named. In names and notes the source's numbering stands. Several values for one entry are separate records, joined by “and”; a condition that tells them apart may be missing. Equal values may be shown once.

Data set [1] addresses T1, DNAJC12, wild type, full-length (human, UniProt Q9UKB3 1-198).
T1 construct: J-domain 14-76, linker-helix 87-100, CTD 176-198; also called DNAJC12-WT
In words: BLI; without L-Phe; biotinylated PAH or TH on streptavidin biosensors, DNAJC12 0.01-4 μM in solution; 25°C, PBS, 0.02% Tween-20, 0.5 mg/mL BSA; responses against concentration fitted to a one-site hyperbola. Particulars: both partners purified.

For data set [2], the target named is T1, DNAJC12, wild type, full-length. In words: BLI; with 1 mM L-Phe; biotinylated PAH on streptavidin biosensors, DNAJC12 0.01-4 μM in solution; 25°C, PBS, 0.02% Tween-20, 0.5 mg/mL BSA; responses against concentration fitted to a one-site hyperbola. Particulars: both partners purified.
Data set [3] concerns the molecule itself. Briefly: SEC-MALS; PAH (2 mg/mL) and pre-purified PAH:DNAJC12 complex (2 mg/mL); Superdex 200 Increase, 20 mM Na-Hepes pH 7.0, 200 mM NaCl, without L-Phe supplementation. (In general: SEC sorts molecules by how far they enter the pores of the column.)
Data set [4] deals with T1, DNAJC12, wild type, full-length. In words: SEC; with 1 mM L-Phe in sample and running buffer; 20 μM (subunit) PAH, PAH variant or MBP-PAH construct with 20-40 μM DNAJC12 or truncated DNAJC12; Superdex 200 Increase, 4°C, 20 mM Na-Hepes pH 7.0, 200 mM NaCl; complex fraction also checked by SDS-PAGE. Particulars: both partners purified.
Data set [5] deals with the molecule itself. In words: SEC-MALS; MBP-PAH(RD) (4 mg/mL) alone or with DNAJC12 (4 mg/mL); Superdex 200 Increase, 20 mM Na-Hepes pH 7.0, 200 mM NaCl, 1 mM L-Phe.
Data set [6] concerns the target B2. Briefly: differential scanning fluorimetry; thermal unfolding of PAH (1.92 μM) with SYPRO Orange at increasing DNAJC12(176-198) peptide (0-16 μM); Tm1 followed. Particulars: both partners purified. On the technique in general: Differential scanning fluorimetry follows unfolding on heating by fluorescence.

In data set [1], B1 returned a Kd of 138 ± 34 nM. As for B2, the Kd is 139 ± 19 nM in data set [2] and 508 ± 59 nM in data set [1]. In addition, in data set [3], the “stoichiometry N” value was 8 subunits in the oligomer and 4 subunits in the oligomer. For the molecule B3, the binding result in data set [4] is “binds”.

For B4, the binding result in data set [4] was “binds”. Moreover, the “stoichiometry N” value in data set [5] is 2 subunits in the oligomer. On to B5, for which the binding result in data set [6] is on record as “binds”.

One may read the Kd as the constant that tells how readily two partners part at equilibrium. A high value points to a looser complex. By stoichiometry N is commonly meant a count of units in the complex or per binding partner.
